Patent US20230213527A1 (QUANTUM SI, published 2023)
Ends that are not written are not given here.

Key:
[1] = molecular target: T1, synthetic peptide … (SEQ ID NO: 794), state with N-terminal leucine (LIFAG) (human, not fully specified (C-terminus); also: C-terminal azidolysine conjugated to DNA-streptavidin linker); experiment: single-molecule on-chip dynamic sequencing with PS610, PS961, PS691, PhTET2 and PhTET3
T1 construct: residue range inferred from the recognized N-terminal residue
T1 peptide: LIFAG
Procedure: (§1) The transition from leucine to isoleucine recognition by PS961 is readily identified as a sharp change in average PD. This overall pattern is replicated across many instances of sequencing of the same peptide, with similar PD statistics across traces, as each peptide molecule follows the same reaction pathway over the course of the sequencing run (FIGS. 3B-3C).
(§2) The semiconductor chip was placed in the sequencing device and a chip check was performed to test electronic circuit function and to optimize laser coupling alignment. The chip was then removed from the device socket and the chip was washed twice with 50 μL of 70% isopropanol, followed by four washes with 30 μL of wash buffer (50 mM MOPS pH 8.0, 60 mM potassium acetate, 50 mM glucose, 20 mM magnesium acetate, and surfactant mix) through a flow cell attached to the chip. […] The laser was unblocked and the occupancy percentage (target 10-30%, Poisson distributed) was recorded by acquiring a photobleaching signal from a fluorophore attached to the peptide complex during 5 min of laser illumination. For NAA recognition-only assays, after peptide loading, labeled recognizer was added to a final concentration of 50 nM PS610, 100 nM PS691, or 250 nM PS961 (as indicated according to the experiment), and data was recorded for 10 hours. […] Data was recorded for 15 min. […] The laser was then unblocked, and data was recorded for 10 hours.

[2] = molecular target: T2, synthetic peptide … (SEQ ID NO: 794), state with N-terminal isoleucine (IFAG) (human, not fully specified (C-terminus); also: C-terminal azidolysine conjugated to DNA-streptavidin linker); experiment: as above
T2 construct: residue range inferred from the recognized N-terminal residue
T2 peptide: IFAG
Procedure: as §1, §2

[3] = molecular target: T3, … (SEQ ID NO: 799), state with N-terminal leucine (LIFAYPDDD) (not fully specified (C-terminus); also: C-terminal azidolysine conjugated to DNA-streptavidin linker); experiment: single-molecule on-chip dynamic sequencing; recognition of N-terminal leucine
T3 construct: residue range inferred from the recognized N-terminal residue
T3 peptide: LIFAYPDDD
Procedure: (§3) To illustrate how the kinetic parameters acquired from sequencing are sensitive to changes in sequence composition, sequencing was performed with a set of three peptides […] (SEQ ID NO: 798), […] (SEQ ID NO: 799), and […] (SEQ ID NO: 800)—that differ only at a single position, located immediately downstream from the PS961 N-terminal target leucine.
(§4) The semiconductor chip was placed in the sequencing device and a chip check was performed to test electronic circuit function and to optimize laser coupling alignment. The chip was then removed from the device socket and the chip was washed twice with 50 μL of 70% isopropanol, followed by four washes with 30 μL of wash buffer (50 mM MOPS pH 8.0, 60 mM potassium acetate, 50 mM glucose, 20 mM magnesium acetate, and surfactant mix) through a flow cell attached to the chip. A second chip check was then performed. The laser was then blocked via an integrated software-controlled shutter, peptide complex was added to a final concentration of 1-10 nM and mixed thoroughly, and the chip was incubated for 15 min. The chip was then washed six times with wash buffer, followed by addition of an imaging solution (wash buffer with 5 mM Trolox and an oxygen scavenging system). The laser was unblocked and the occupancy percentage (target 10-30%, Poisson distributed) was recorded by acquiring a photobleaching signal from a fluorophore attached to the peptide complex during 5 min of laser illumination. For NAA recognition-only assays, after peptide loading, labeled recognizer was added to a final concentration of 50 nM PS610, 100 nM PS691, or 250 nM PS961 (as indicated according to the experiment), and data was recorded for 10 hours.

[4] = molecular target: T4, … (SEQ ID NO: 798), state with N-terminal leucine (LAFAYPDDD) (not fully specified (C-terminus); also: C-terminal azidolysine conjugated to DNA-streptavidin linker); experiment: as above
T4 construct: residue range inferred from the recognized N-terminal residue
T4 peptide: LAFAYPDDD
Procedure: as §3, §4

[5] = molecular target: peptide with N-terminal IAA (C-terminal azidolysine conjugated to DNA-streptavidin linker); experiment: single-molecule on-chip NAA recognition-only assay; immobilized peptide, dye-labeled recognizer in solution
Procedure: as §4, with “hours. For dynamic sequencing assays, after peptide loading, a mixture of labeled recognizers was added to obtain final concentrations of 50 nM PS610, 100 nM PS691, and 250 nM PS961. Data was recorded for 15 min. The laser was then blocked briefly and aminopeptidases were added to the sequencing reaction via the flow cell and mixed thoroughly (final concentration 2-8 μM PhTET2 and/or 20-80 μM PhTET3, as indicated according to the experiment). The laser was then unblocked, and data was recorded for 10 hours. For all runs, 30 μL of mineral oil was added to fluid reservoirs at each port of the flow cell to prevent evaporation during the run.” for “hours.”

[6] = molecular target: peptide with N-terminal LAA (C-terminal azidolysine conjugated to DNA-streptavidin linker); experiment: as above
Procedure: as §4, with “hours. For dynamic sequencing assays, after peptide loading, a mixture of labeled recognizers was added to obtain final concentrations of 50 nM PS610, 100 nM PS691, and 250 nM PS961. Data was recorded for 15 min. The laser was then blocked briefly and aminopeptidases were added to the sequencing reaction via the flow cell and mixed thoroughly (final concentration 2-8 μM PhTET2 and/or 20-80 μM PhTET3, as indicated according to the experiment). The laser was then unblocked, and data was recorded for 10 hours. For all runs, 30 μL of mineral oil was added to fluid reservoirs at each port of the flow cell to prevent evaporation during the run.” for “hours.”

[7] = molecular target: peptide with N-terminal VAA (C-terminal azidolysine conjugated to DNA-streptavidin linker); experiment: as above
Procedure: as §4, with “hours. For dynamic sequencing assays, after peptide loading, a mixture of labeled recognizers was added to obtain final concentrations of 50 nM PS610, 100 nM PS691, and 250 nM PS961. Data was recorded for 15 min. The laser was then blocked briefly and aminopeptidases were added to the sequencing reaction via the flow cell and mixed thoroughly (final concentration 2-8 μM PhTET2 and/or 20-80 μM PhTET3, as indicated according to the experiment). The laser was then unblocked, and data was recorded for 10 hours. For all runs, 30 μL of mineral oil was added to fluid reservoirs at each port of the flow cell to prevent evaporation during the run.” for “hours.”

B1: PS961 (designed binder)
chain: MPTAASATESAIEDTPAPARPEVDGRTKPKRQPRYHVVLWDDDDHTYQYVVVMLRSLFGHPPSRGYRMAKEMDTQGRVIVLTTTREHAELKRDQIHAFGRDRLLARSKGSMKASIEAEE
notes: also called PS961 (L, I, V); PS961 (LIV)
[1]
  binding result: binds
[2]
  binding result: binds
[3]
  median pulse duration (PD): 2.22 s
[4]
  median pulse duration (PD): 1.29 s
[5]
  median pulse duration (PD): 0.28 s
[6]
  median pulse duration (PD): 1.21 s
[7]
  median pulse duration (PD): 0.21 s
